From patent publication US20240270846A1 (published 2024)

Each binder was assayed against T1, CD3 epsilon homodimer protein (UniProt P07766 23-126) (assay: SPR Biacore T200, CD3e homodimer on chip, antibody analyte;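 also: CD3 epsilon homodimer amine-coupled on CM4 sensor chip, antibodies injected as analyte at 25 °C in HBS-EP+, ratio ≥0.8 taken as binding retained versus unaltered parent antibody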).
T1 construct: Construct of the homodimer is not described; also called CD3 (CD3 epsilon)
T1 sequence (P07766 23-126): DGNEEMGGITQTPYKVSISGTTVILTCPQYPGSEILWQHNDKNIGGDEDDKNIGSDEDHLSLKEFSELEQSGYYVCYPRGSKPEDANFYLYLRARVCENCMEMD

Binder	ratio of amounts bound (altered form/GLS3000)
GLS3000 K50E one-arm antibody (antibody, human IgG1, kappa, L234A L235A, N297A, name in Kabat numbering) light: DIVMTQSPLSLPVTPGEPASISCRSSQSLVHSNRNTYLHWYQQKPGQAPRLLIYEVSNRFSGVPDRFSGSGSGTDFTLKISRVEAEDVGVYYCGQGTQVPYTFGQGTKLEIKRTVAAPSVFIFPPSDEQLKSGTASVVCLLNNFYPREAKVQWKVDNALQSGNSQESVTEQDSKDSTYSLSSTLTLSKADYEKHKVYACEVTHQGLSSPVTKSFNRGEC heavy: QVQLVESGGGVVQPGRSLRLSCAASGFTFSNAWMHWVRQAPGKGLEWVAQIKAKSNNYATYYAESVKGRFTISRDDSKNSLYLQMNSLKTEDTAVYYCRYVHYGAYYGVDAWGQGTTVTVSSASTKGPSVFPLAPSSKSTSGGTAALGCLVKDYFPEPVTVSWNSGALTSGVHTFPAVLQSSGLYSLSSVVTVPSSSLGTQTYICNVNHKPSNTKVDKKVEPKSCDKTHTCPPCPAPEAAGGPSVFLFPPKPKDTLMISRTPEVTCVVVDVSHEDPEVKFNWYVDGVEVHNAKTKPREEQYASTYRVVSVLTVLHQDWLNGKEYKCKVSNKALPAPIEKTISKAKGQPREPQVYTLPPSRCELTKNQVSLSCAVKGFYPSDIAVEWESNGQPENNYKTTPPVLDSDGSFFLVSKLTVDKSRWQQGNVFSCSVMHEALHNHYTQKSLSLSPDYKDDDDK EPKSSDKTHTCPPCPAPELLGGPSVFLFPPKPKDTLMISRTPEVTCVVVDVSHEDPEVKFNWYVDGVEVHNAKTKPREEQYNSTYRVVSVLTVLHQDWLNGKEYKCKVSNKALPAPIEKTISKAKGQPREPQVCTLPPSRDELTKNQVSLWCLVKGFYPSDIAVEWESNGQPENNYKTTPPVLDSDGSFFLYSKLTVDKSRWQQGNVFSCSVMHEALHNRYTQKSLSLSP	0.24
GLS3000 K50P one-arm antibody (antibody, human IgG1, kappa, L234A L235A, N297A, name in Kabat numbering) light: DIVMTQSPLSLPVTPGEPASISCRSSQSLVHSNRNTYLHWYQQKPGQAPRLLIYPVSNRFSGVPDRFSGSGSGTDFTLKISRVEAEDVGVYYCGQGTQVPYTFGQGTKLEIKRTVAAPSVFIFPPSDEQLKSGTASVVCLLNNFYPREAKVQWKVDNALQSGNSQESVTEQDSKDSTYSLSSTLTLSKADYEKHKVYACEVTHQGLSSPVTKSFNRGEC heavy: QVQLVESGGGVVQPGRSLRLSCAASGFTFSNAWMHWVRQAPGKGLEWVAQIKAKSNNYATYYAESVKGRFTISRDDSKNSLYLQMNSLKTEDTAVYYCRYVHYGAYYGVDAWGQGTTVTVSSASTKGPSVFPLAPSSKSTSGGTAALGCLVKDYFPEPVTVSWNSGALTSGVHTFPAVLQSSGLYSLSSVVTVPSSSLGTQTYICNVNHKPSNTKVDKKVEPKSCDKTHTCPPCPAPEAAGGPSVFLFPPKPKDTLMISRTPEVTCVVVDVSHEDPEVKFNWYVDGVEVHNAKTKPREEQYASTYRVVSVLTVLHQDWLNGKEYKCKVSNKALPAPIEKTISKAKGQPREPQVYTLPPSRCELTKNQVSLSCAVKGFYPSDIAVEWESNGQPENNYKTTPPVLDSDGSFFLVSKLTVDKSRWQQGNVFSCSVMHEALHNHYTQKSLSLSPDYKDDDDK EPKSSDKTHTCPPCPAPELLGGPSVFLFPPKPKDTLMISRTPEVTCVVVDVSHEDPEVKFNWYVDGVEVHNAKTKPREEQYNSTYRVVSVLTVLHQDWLNGKEYKCKVSNKALPAPIEKTISKAKGQPREPQVCTLPPSRDELTKNQVSLWCLVKGFYPSDIAVEWESNGQPENNYKTTPPVLDSDGSFFLYSKLTVDKSRWQQGNVFSCSVMHEALHNRYTQKSLSLSP	0.3
GLS3000 K50Q one-arm antibody (antibody, human IgG1, kappa, L234A L235A, N297A, name in Kabat numbering) light: DIVMTQSPLSLPVTPGEPASISCRSSQSLVHSNRNTYLHWYQQKPGQAPRLLIYQVSNRFSGVPDRFSGSGSGTDFTLKISRVEAEDVGVYYCGQGTQVPYTFGQGTKLEIKRTVAAPSVFIFPPSDEQLKSGTASVVCLLNNFYPREAKVQWKVDNALQSGNSQESVTEQDSKDSTYSLSSTLTLSKADYEKHKVYACEVTHQGLSSPVTKSFNRGEC heavy: QVQLVESGGGVVQPGRSLRLSCAASGFTFSNAWMHWVRQAPGKGLEWVAQIKAKSNNYATYYAESVKGRFTISRDDSKNSLYLQMNSLKTEDTAVYYCRYVHYGAYYGVDAWGQGTTVTVSSASTKGPSVFPLAPSSKSTSGGTAALGCLVKDYFPEPVTVSWNSGALTSGVHTFPAVLQSSGLYSLSSVVTVPSSSLGTQTYICNVNHKPSNTKVDKKVEPKSCDKTHTCPPCPAPEAAGGPSVFLFPPKPKDTLMISRTPEVTCVVVDVSHEDPEVKFNWYVDGVEVHNAKTKPREEQYASTYRVVSVLTVLHQDWLNGKEYKCKVSNKALPAPIEKTISKAKGQPREPQVYTLPPSRCELTKNQVSLSCAVKGFYPSDIAVEWESNGQPENNYKTTPPVLDSDGSFFLVSKLTVDKSRWQQGNVFSCSVMHEALHNHYTQKSLSLSPDYKDDDDK EPKSSDKTHTCPPCPAPELLGGPSVFLFPPKPKDTLMISRTPEVTCVVVDVSHEDPEVKFNWYVDGVEVHNAKTKPREEQYNSTYRVVSVLTVLHQDWLNGKEYKCKVSNKALPAPIEKTISKAKGQPREPQVCTLPPSRDELTKNQVSLWCLVKGFYPSDIAVEWESNGQPENNYKTTPPVLDSDGSFFLYSKLTVDKSRWQQGNVFSCSVMHEALHNRYTQKSLSLSP	0.18
GLS3000 K50R one-arm antibody (antibody, human IgG1, kappa, L234A L235A, N297A, name in Kabat numbering) light: DIVMTQSPLSLPVTPGEPASISCRSSQSLVHSNRNTYLHWYQQKPGQAPRLLIYRVSNRFSGVPDRFSGSGSGTDFTLKISRVEAEDVGVYYCGQGTQVPYTFGQGTKLEIKRTVAAPSVFIFPPSDEQLKSGTASVVCLLNNFYPREAKVQWKVDNALQSGNSQESVTEQDSKDSTYSLSSTLTLSKADYEKHKVYACEVTHQGLSSPVTKSFNRGEC heavy: QVQLVESGGGVVQPGRSLRLSCAASGFTFSNAWMHWVRQAPGKGLEWVAQIKAKSNNYATYYAESVKGRFTISRDDSKNSLYLQMNSLKTEDTAVYYCRYVHYGAYYGVDAWGQGTTVTVSSASTKGPSVFPLAPSSKSTSGGTAALGCLVKDYFPEPVTVSWNSGALTSGVHTFPAVLQSSGLYSLSSVVTVPSSSLGTQTYICNVNHKPSNTKVDKKVEPKSCDKTHTCPPCPAPEAAGGPSVFLFPPKPKDTLMISRTPEVTCVVVDVSHEDPEVKFNWYVDGVEVHNAKTKPREEQYASTYRVVSVLTVLHQDWLNGKEYKCKVSNKALPAPIEKTISKAKGQPREPQVYTLPPSRCELTKNQVSLSCAVKGFYPSDIAVEWESNGQPENNYKTTPPVLDSDGSFFLVSKLTVDKSRWQQGNVFSCSVMHEALHNHYTQKSLSLSPDYKDDDDK EPKSSDKTHTCPPCPAPELLGGPSVFLFPPKPKDTLMISRTPEVTCVVVDVSHEDPEVKFNWYVDGVEVHNAKTKPREEQYNSTYRVVSVLTVLHQDWLNGKEYKCKVSNKALPAPIEKTISKAKGQPREPQVCTLPPSRDELTKNQVSLWCLVKGFYPSDIAVEWESNGQPENNYKTTPPVLDSDGSFFLYSKLTVDKSRWQQGNVFSCSVMHEALHNRYTQKSLSLSP	0.5
GLS3000 K50G one-arm antibody (antibody, human IgG1, kappa, L234A L235A, N297A, name in Kabat numbering) light: DIVMTQSPLSLPVTPGEPASISCRSSQSLVHSNRNTYLHWYQQKPGQAPRLLIYGVSNRFSGVPDRFSGSGSGTDFTLKISRVEAEDVGVYYCGQGTQVPYTFGQGTKLEIKRTVAAPSVFIFPPSDEQLKSGTASVVCLLNNFYPREAKVQWKVDNALQSGNSQESVTEQDSKDSTYSLSSTLTLSKADYEKHKVYACEVTHQGLSSPVTKSFNRGEC heavy: QVQLVESGGGVVQPGRSLRLSCAASGFTFSNAWMHWVRQAPGKGLEWVAQIKAKSNNYATYYAESVKGRFTISRDDSKNSLYLQMNSLKTEDTAVYYCRYVHYGAYYGVDAWGQGTTVTVSSASTKGPSVFPLAPSSKSTSGGTAALGCLVKDYFPEPVTVSWNSGALTSGVHTFPAVLQSSGLYSLSSVVTVPSSSLGTQTYICNVNHKPSNTKVDKKVEPKSCDKTHTCPPCPAPEAAGGPSVFLFPPKPKDTLMISRTPEVTCVVVDVSHEDPEVKFNWYVDGVEVHNAKTKPREEQYASTYRVVSVLTVLHQDWLNGKEYKCKVSNKALPAPIEKTISKAKGQPREPQVYTLPPSRCELTKNQVSLSCAVKGFYPSDIAVEWESNGQPENNYKTTPPVLDSDGSFFLVSKLTVDKSRWQQGNVFSCSVMHEALHNHYTQKSLSLSPDYKDDDDK EPKSSDKTHTCPPCPAPELLGGPSVFLFPPKPKDTLMISRTPEVTCVVVDVSHEDPEVKFNWYVDGVEVHNAKTKPREEQYNSTYRVVSVLTVLHQDWLNGKEYKCKVSNKALPAPIEKTISKAKGQPREPQVCTLPPSRDELTKNQVSLWCLVKGFYPSDIAVEWESNGQPENNYKTTPPVLDSDGSFFLYSKLTVDKSRWQQGNVFSCSVMHEALHNRYTQKSLSLSP	0.16
GLS3000 K50L one-arm antibody (antibody, human IgG1, kappa, L234A L235A, N297A, name in Kabat numbering) light: DIVMTQSPLSLPVTPGEPASISCRSSQSLVHSNRNTYLHWYQQKPGQAPRLLIYLVSNRFSGVPDRFSGSGSGTDFTLKISRVEAEDVGVYYCGQGTQVPYTFGQGTKLEIKRTVAAPSVFIFPPSDEQLKSGTASVVCLLNNFYPREAKVQWKVDNALQSGNSQESVTEQDSKDSTYSLSSTLTLSKADYEKHKVYACEVTHQGLSSPVTKSFNRGEC heavy: QVQLVESGGGVVQPGRSLRLSCAASGFTFSNAWMHWVRQAPGKGLEWVAQIKAKSNNYATYYAESVKGRFTISRDDSKNSLYLQMNSLKTEDTAVYYCRYVHYGAYYGVDAWGQGTTVTVSSASTKGPSVFPLAPSSKSTSGGTAALGCLVKDYFPEPVTVSWNSGALTSGVHTFPAVLQSSGLYSLSSVVTVPSSSLGTQTYICNVNHKPSNTKVDKKVEPKSCDKTHTCPPCPAPEAAGGPSVFLFPPKPKDTLMISRTPEVTCVVVDVSHEDPEVKFNWYVDGVEVHNAKTKPREEQYASTYRVVSVLTVLHQDWLNGKEYKCKVSNKALPAPIEKTISKAKGQPREPQVYTLPPSRCELTKNQVSLSCAVKGFYPSDIAVEWESNGQPENNYKTTPPVLDSDGSFFLVSKLTVDKSRWQQGNVFSCSVMHEALHNHYTQKSLSLSPDYKDDDDK EPKSSDKTHTCPPCPAPELLGGPSVFLFPPKPKDTLMISRTPEVTCVVVDVSHEDPEVKFNWYVDGVEVHNAKTKPREEQYNSTYRVVSVLTVLHQDWLNGKEYKCKVSNKALPAPIEKTISKAKGQPREPQVCTLPPSRDELTKNQVSLWCLVKGFYPSDIAVEWESNGQPENNYKTTPPVLDSDGSFFLYSKLTVDKSRWQQGNVFSCSVMHEALHNRYTQKSLSLSP	0.24
